Measured values from IntAct's records for PubMed 11864996.

B1: Forkhead box protein O3 (Homo sapiens), O43524 (parent)
chain: MAEAPASPAPLSPLEVELDPEFEPQSRPRSCTWPLQRPELQASPAKPSGETAADSMIPEEEDDEDDEDGGGRAGSAMAIGGGGGSGTLGSGLLLEDSARVLAPGGQDPGSGPATAAGGLSGGTQALLQPQQPLPPPQPGAAGGSGQPRKCSSRRNAWGNLSYADLITRAIESSPDKRLTLSQIYEWMVRCVPYFKDKGDSNSSAGWKNSIRHNLSLHSRFMRVQNEGTGKSSWWIINPDGGKSGKAPRRRAVSMDNSNKYTKSRGRAAKKKAALQTAPESADDSPSQLSKWPGSPTSRSSDELDAWTDFRSRTNSNASTVSGRLSPIMASTELDEVQDDDAPLSPMLYSSSASLSPSVSKPCTVELPRLTDMAGTMNLNDGLTENLMDDLLDNITLPPSQPSPTGGLMQRSSSFPYTTKGSGLGSPTSSFNSTVFGPSSLNSLRQSPMQTIQENKPATFSSMSHYGNQTLQDLLTSDSLSHSDVMMTQSDPLMSQASTAVSAQNSRRNVMLRNDPMMSFAAQPNQGSLVNQNLLHHQHQTQGALGGSRALSNSVSNMGLSESSSLGSAKHQQQSPVSQSMQTLSDSLSGSSLYSTSANLPVMGHEKFPSDLDLDMFNGSLECDMESIIRSELMDADGLDFNFDSLISTQNVVGLNVGNFTGAKQASSQSWVPG

Variants of: B1
Conditions: with 1433z_human YWHAZ
In the case of T32A;S253A;S315A, the “effect of a mutation on the interaction” value is reported as “disrupting interaction”.
